Reference: patent publication US20110195022A1 (IMMUNOGEN, published 2011)
Values joined by “and” are separate entries in the source; they are usually repeats but may differ in a detail not shown here. Equal values may be shown once. Read-outs that look alike come from different tables or passages of the source.

B1: chCD20-4 (antibody, V domains shown)
VH: EVKVEESGGGLVKTGGSMKLSCVASGFSFNNYWMNWVRQSPEKGLEWVAEIRLKSNNYATHYVESVKGRFTISRDDSKSSVYLQMNNLRAEDTGIYYCTGWDDYAMDHWGQGISVTVSS
VL: DIVMTQSQKFMSTSVGDRVSVNCKASQNVGTNVAWYQQKPRQSPKGLIYSASFRYSGVPDRFTGSGSGTDFTLTIFNVQSDDLAEYFCQQYNNYPLTFGGGTKLEIKR
notes: Chimeric antibody: murine CD20-4 variable regions cloned in frame with human constant regions (plasmids pchCD20-4HCN and pchCD20-4LCZ), expressed in HEK-293T; the murine VL/VH entries 5 and 6 are used; a huIgG1 isotype control was used beside it; also called chimeric CD20-4
B2: chCD20-20 (antibody, V domains shown)
VH: QVQLQQSGAELARPGASVKLSCKASGYTFTSYWMHWVKQRPGQGLEWIGAIYPGDGDTRYTQKFKGKATLTADKSSYTAYMQLSSLASEDSAVYYCARSPDFYGSGYDFDYWGQGTTLTVSS
VL: DIKMTQSPSSMYTSLGERVTITCKASQDINSFLSWFQQKPGKSPKTLIYRAYRLVDGVPSRFSGSGSGQDYSLTISSLEFEDMGIYYCLQSGAFPLTFGAGTKLELKR
notes: Chimeric antibody: murine CD20-20 variable regions with human constant regions (equivalent plasmids to chCD20-4), expressed in HEK-293T; the murine VL/VH entries 7 and 8 are used; also called chimeric CD20-20
B3: rituximab (antibody, V domains shown)
VH: QVQLQQPGAELVKPGASVKMSCKASGYTFTSYNMHWVKQTPGRGLEWIGAIYPGNGDTSYNQKFKGKATLTADKSSSTAYMQLSSLTSEDSAVYYCARSTYYGGDWYFNVWGAGTTVTVSA
VL: QIVLSQSPAILSASPGEKVTMTCRASSSVSYIHWFQQKPGSSPKPWIYATSNLASGVPVRFSGSGSGTSYSLTISRVEAEDAATYYCQQWTSNPPTFGGGTKLEIK
B4: huCD20-4 (antibody, human IgG1, kappa, V domains shown)
VH: EVQVEESGGGLVQPGGSMRLSCVASGFSFNNYWMNWVRQSPGKGLEWVAEIRLKSNNYATHYVDSVKGRFTISRDDSKSSVYLQMNNLRAEDTGIYYCTGWDDYAMDHWGQGISVTVSS
VL: DIQMTQSPSTMSTSVGDRVSVNCKASQNVGTNVAWYQQKPGKSPKGLIYSASFRYSGVPSRFTGSGSGTDFTLTIFNVQPDDLAEYFCQQYNNYPLTFGGGTKLEIKR
notes: Resurfaced antibody expressed in HEK-293T cells; also called humanized CD20-4; resurfaced CD20-4
B5: huCD20-4-SMCC-DM1 (antibody, human IgG1, kappa, V domains shown)
VH: EVQVEESGGGLVQPGGSMRLSCVASGFSFNNYWMNWVRQSPGKGLEWVAEIRLKSNNYATHYVDSVKGRFTISRDDSKSSVYLQMNNLRAEDTGIYYCTGWDDYAMDHWGQGISVTVSS
VL: DIQMTQSPSTMSTSVGDRVSVNCKASQNVGTNVAWYQQKPGKSPKGLIYSASFRYSGVPSRFTGSGSGTDFTLTIFNVQPDDLAEYFCQQYNNYPLTFGGGTKLEIKR
modifications: DM1 linked through SMCC (thioether), 3.5-4 DM1 molecules per antibody; sites not stated
notes: also called huCD20-4-MCC-DM1
B6: huCD20-4-SPDB-DM4 (antibody, human IgG1, kappa, V domains shown)
VH: EVQVEESGGGLVQPGGSMRLSCVASGFSFNNYWMNWVRQSPGKGLEWVAEIRLKSNNYATHYVDSVKGRFTISRDDSKSSVYLQMNNLRAEDTGIYYCTGWDDYAMDHWGQGISVTVSS
VL: DIQMTQSPSTMSTSVGDRVSVNCKASQNVGTNVAWYQQKPGKSPKGLIYSASFRYSGVPSRFTGSGSGTDFTLTIFNVQPDDLAEYFCQQYNNYPLTFGGGTKLEIKR
modifications: DM4 linked through SPDB (disulfide), 3.5-4 DM4 molecules per antibody; sites not stated
B7: huCD20-4-SPP-DM1 (antibody, human IgG1, kappa, V domains shown)
VH: EVQVEESGGGLVQPGGSMRLSCVASGFSFNNYWMNWVRQSPGKGLEWVAEIRLKSNNYATHYVDSVKGRFTISRDDSKSSVYLQMNNLRAEDTGIYYCTGWDDYAMDHWGQGISVTVSS
VL: DIQMTQSPSTMSTSVGDRVSVNCKASQNVGTNVAWYQQKPGKSPKGLIYSASFRYSGVPSRFTGSGSGTDFTLTIFNVQPDDLAEYFCQQYNNYPLTFGGGTKLEIKR
modifications: DM1 linked through SPP (disulfide), 3.5-4 DM1 molecules per antibody; sites not stated
B8: 2F2 (antibody, V domains shown)
VH: EVQLVESGGGLVQPGRSLRLSCAASGFTFNDYAMHWVRQAPGKGLEWVSTISWNSGSIGYADSVKGRFTISRDNAKKSLYLQMNSLRAEDTALYYCAKDIQYGNYYYGMDVWGQGTTVTVSS
VL: EIVLTQSPATLSLSPGERATLSCRASQSVSSYLAWYQQKPGQAPRLLIYDASNRATGIPARFSGSGSGTDFTLTISSLEPEDFAVYYCQQRSNWPITFGQGTRLEIK
B9: muCD20-4 (antibody, mouse IgG2a, kappa, V domains shown)
VH: EVKVEESGGGLVKTGGSMKLSCVASGFSFNNYWMNWVRQSPEKGLEWVAEIRLKSNNYATHYVESVKGRFTISRDDSKSSVYLQMNNLRAEDTGIYYCTGWDDYAMDHWGQGISVTVSS
VL: DIVMTQSQKFMSTSVGDRVSVNCKASQNVGTNVAWYQQKPRQSPKGLIYSASFRYSGVPDRFTGSGSGTDFTLTIFNVQSDDLAEYFCQQYNNYPLTFGGGTKLEIKR
notes: Murine monoclonal antibody purified from hybridoma supernatant (ATCC PTA-10485 or PTA-10561); also called murine CD20-4
B10: muCD20-20 (antibody, mouse IgG1, kappa, V domains shown)
VH: QVQLQQSGAELARPGASVKLSCKASGYTFTSYWMHWVKQRPGQGLEWIGAIYPGDGDTRYTQKFKGKATLTADKSSYTAYMQLSSLASEDSAVYYCARSPDFYGSGYDFDYWGQGTTLTVSS
VL: DIKMTQSPSSMYTSLGERVTITCKASQDINSFLSWFQQKPGKSPKTLIYRAYRLVDGVPSRFSGSGSGQDYSLTISSLEFEDMGIYYCLQSGAFPLTFGAGTKLELKR
notes: Murine monoclonal antibody purified from hybridoma supernatant; also called murine CD20-20

Key:
human CD20 [1] = target: T1, human CD20 (human, UniProt P11836 1-297); test: flow cytometry titration on BJAB cells, apparent Kd from the dose-response curve
T1 construct: whole, on cells; Tetra-spanin type membrane antigen, always presented on cells; also called CD20 wildtype; wild type CD20
T1 sequence (looked up): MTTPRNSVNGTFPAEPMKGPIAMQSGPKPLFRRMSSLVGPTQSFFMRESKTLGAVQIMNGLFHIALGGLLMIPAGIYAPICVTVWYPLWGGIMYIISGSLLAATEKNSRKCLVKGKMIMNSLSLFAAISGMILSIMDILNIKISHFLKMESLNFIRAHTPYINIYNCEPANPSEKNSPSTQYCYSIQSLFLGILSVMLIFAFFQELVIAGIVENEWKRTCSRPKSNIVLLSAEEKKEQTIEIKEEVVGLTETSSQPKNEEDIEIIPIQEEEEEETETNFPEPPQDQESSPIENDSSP
Description: (§1) Data analysis was performed using CellQuest Pro (BD Biosciences, San Diego, US) and for each sample the mean fluorescence intensity for FL1 (MFI) was exported and plotted against the antibody concentration in a semi-log plot.
The value for the apparent dissociation constant (Kd) of each antibody was calculated using GraphPad Prism v4 (GraphPad software, San Diego, Calif.).

human CD20 [2] = target: T1, human CD20; test: cell-based or functional assay
human CD20 [3] = target: T1, human CD20; test: flow cytometry, 300-19 cells transfected with wild type human CD20, MFI against antibody concentration
human CD20 [4] = target: T1, human CD20; test: flow cytometry, BJAB cells, MFI against antibody concentration
Description: as §1

CD20-A170S P172S variant [5] = target: T2, CD20-A170S P172S variant (human, UniProt P11836 1-297); test: flow cytometry, 300-19 cells transfected with CD20-A170S P172S, MFI against antibody concentration
T2 construct: whole, on cells; also called CD20-AP; CD20AP
T2 sequence (looked up): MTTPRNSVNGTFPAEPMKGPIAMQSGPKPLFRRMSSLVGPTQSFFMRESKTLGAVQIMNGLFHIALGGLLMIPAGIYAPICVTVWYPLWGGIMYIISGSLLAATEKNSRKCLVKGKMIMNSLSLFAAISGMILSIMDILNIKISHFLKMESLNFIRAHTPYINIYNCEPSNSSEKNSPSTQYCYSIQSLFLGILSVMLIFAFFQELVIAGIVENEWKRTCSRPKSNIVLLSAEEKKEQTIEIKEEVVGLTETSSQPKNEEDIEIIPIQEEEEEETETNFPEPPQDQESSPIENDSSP

human CD20 [6] = target: T1, human CD20; test: flow cytometry titration on BJAB cells, apparent Kd from the binding curve
Description: as §1

human CD20 [7] = target: T1, human CD20; test: cell-based or functional assay; remark: listed apart in the source
CD20-A170S P172S variant [8] = target: T2, CD20-A170S P172S variant; test: flow cytometry, 300-19 cells transfected with CD20-A170S P172S, MFI against antibody concentration; remark: listed apart in the source

Binder	Kd (human CD20 [1])	EC50 of CDC, WSU-DLCL-2 cells, 5% human complement (human CD20 [2])	EC50 of ADCC, Granta-519 cells, human NK cells, LDH release (human CD20 [2])	EC50 of ADCC, SU-DHL-4 cells, human NK cells, LDH release (human CD20 [2])	EC50 of CDC, Daudi cells, 5% human complement (human CD20 [2])	Kd (human CD20 [6])	EC50 of in vitro cytotoxicity (WST-8), Daudi cells (human CD20 [2])	EC50 of in vitro cytotoxicity (WST-8), Ramos cells (human CD20 [2])	further results
B1	0.47 nM	27 ng/mL							
B2	0.42 nM	84 ng/mL							EC50 (read off the curve) (human CD20 [3]): ~0.7 nM
B3		350 ng/mL and 190 ng/mL	1.23 ng/mL	0.53 ng/mL	300 ng/mL				EC50 of ADCC, DOHH-2 cells, human NK cells, LDH release (human CD20 [2]): 1.08 ng/mL; EC50 of ADCC, JVM-13 cells, human NK cells, LDH release (human CD20 [2]): 0.29 ng/mL; EC50 of ADCC, Ramos cells, human NK cells, LDH release (human CD20 [2]): 3.5 ng/mL; EC50 of CDC, Raji cells, 5% human complement (human CD20 [2]): 110 ng/mL; EC50 of CDC, Ramos cells, 5% human complement (human CD20 [2]): 60 ng/mL; EC50 of CDC, SU-DHL-4 cells, 5% human complement (human CD20 [2]): 310 ng/mL
B4	0.46 nM	~40 ng/mL	0.28 ng/mL and 0.29 ng/mL	0.2 ng/mL	50 ng/mL and ~50 ng/mL	1 nM			EC50 of ADCC, DOHH-2 cells, human NK cells, LDH release (human CD20 [2]): 0.57 ng/mL; EC50 of ADCC, JVM-13 cells, human NK cells, LDH release (human CD20 [2]): 0.097 ng/mL; EC50 of ADCC, Ramos cells, human NK cells, LDH release (human CD20 [2]): 0.4 ng/mL; EC50 of ADCC, WSU-DLCL-2 cells, human NK cells, LDH release (human CD20 [2]): 0.4 ng/mL; EC50 of CDC, Raji cells, 5% human complement (human CD20 [2]): 32 ng/mL; EC50 of CDC, Ramos cells, 5% human complement (human CD20 [2]): 10 ng/mL; EC50 of CDC, SU-DHL-4 cells, 5% human complement (human CD20 [2]): 30 ng/mL; EC50 (read off the curve) (human CD20 [4]): ~0.6 nM; EC50 (read off the curve) (human CD20 [3]): ~1 nM; binding result (CD20-A170S P172S variant [5]): no binding (tested: 1e-7 M)
B5		~40 ng/mL	0.28 ng/mL	0.27 ng/mL	~80 ng/mL	0.9 nM	0.21 nM	0.22 nM and 0.35 nM	EC50 of in vitro cytotoxicity (WST-8), DOHH-2 cells (human CD20 [7]): 0.11 nM; EC50 of in vitro cytotoxicity (WST-8), Daudi cells (human CD20 [7]): 0.29 nM; EC50 of in vitro cytotoxicity (WST-8), Granta-519 cells (human CD20 [7]): 0.03 nM; EC50 of in vitro cytotoxicity (WST-8), Ramos cells (human CD20 [7]): 0.54 nM; EC50 of in vitro cytotoxicity (WST-8), SC-1 cells (human CD20 [7]): 0.6 nM
B6		~40 ng/mL					0.19 nM	0.39 nM	
B7						1.5 nM	0.4 nM	0.35 nM	
B8									EC50 (read off the curve) (CD20-A170S P172S variant [8]): ~4 nM; EC50 (read off the curve) (CD20-A170S P172S variant [5]): ~2 nM
B9	0.97 nM								
B10	0.59 nM								
